For assay [1], the target named is T1, GUCY2C-His蛋白 (human GUCY2C extracellular region with C-terminal 6xHis) (human, UniProt P25092 24-430).
T1 construct: extracellular domain; Made in HEK-293F with an unspecified N-terminal signal peptide; also called 人GUCY2C-His蛋白
Description: ELISA, GUCY2C-His coated, anti-human IgG Fab HRP (Table 10).

The target in assay [2] is T2, GUCY2C-Fc蛋白 (human GUCY2C extracellular region fused to human IgG1 Fc) (human, UniProt P25092 24-430).
T2 construct: extracellular domain; Made in HEK-293F with an unspecified N-terminal signal peptide; also called 人GUCY2C-Fc蛋白; not shown: human IgG1 Fc at the C-terminus in place of the 6xHis tag
As to the kind of experiment: ELISA, GUCY2C-Fc coated, anti-human IgG Fab HRP (Table 12).

For assay [3], the target named is T3, CD3ε-ECD-his (UniProt P07766 23-126).
T3 construct: extracellular domain; also called CD3ε蛋白
As to the kind of experiment: ELISA, CD3ε-ECD-his coated at 1 ug/mL, anti-human IgG Fab HRP (Table 14).

For assay [4], the target named is T3, CD3ε-ECD-his. Description: ELISA, CD3ε-ECD-his coated at 1 ug/mL (Table 19).
The target in assay [5] is T2, GUCY2C-Fc蛋白 (human GUCY2C extracellular …). As to the kind of experiment: ELISA, GUCY2C-Fc coated, anti-human IgG Fab HRP (Table 18).
The target in assay [6] is T4, GUCY2C on tumour cells (CW2, CW2-GCC#1, T84) (human, UniProt P25092 24-1073). Description: cell-based or functional assay.
For assay [7], the target named is T1, GUCY2C-His蛋白 (human GUCY2C …). As to the kind of experiment: ELISA, GUCY2C-His coated, anti-human IgG Fab HRP (Table 17).
Assay [8] has as its target T3, CD3ε-ECD-his. As to the kind of experiment: ELISA, CD3ε-ECD-his coated; reference SP34.
Assay [9] has as its target T2, GUCY2C-Fc蛋白 (human GUCY2C extracellular …). Description: ELISA, GUCY2C-Fc coated, anti-human IgG Fab HRP (Table 11).
For assay [10], the target named is T1, GUCY2C-His蛋白 (human GUCY2C …). As to the kind of experiment: ELISA, GUCY2C-His coated, anti-human IgG Fab HRP (Table 9).
In assay [11] the target is T4, GUCY2C on tumour cells (CW2, CW2-GCC#1, …). Description: cell-based or functional assay. This is another data set of the same source.

T4 sequence (P25092 24-1073): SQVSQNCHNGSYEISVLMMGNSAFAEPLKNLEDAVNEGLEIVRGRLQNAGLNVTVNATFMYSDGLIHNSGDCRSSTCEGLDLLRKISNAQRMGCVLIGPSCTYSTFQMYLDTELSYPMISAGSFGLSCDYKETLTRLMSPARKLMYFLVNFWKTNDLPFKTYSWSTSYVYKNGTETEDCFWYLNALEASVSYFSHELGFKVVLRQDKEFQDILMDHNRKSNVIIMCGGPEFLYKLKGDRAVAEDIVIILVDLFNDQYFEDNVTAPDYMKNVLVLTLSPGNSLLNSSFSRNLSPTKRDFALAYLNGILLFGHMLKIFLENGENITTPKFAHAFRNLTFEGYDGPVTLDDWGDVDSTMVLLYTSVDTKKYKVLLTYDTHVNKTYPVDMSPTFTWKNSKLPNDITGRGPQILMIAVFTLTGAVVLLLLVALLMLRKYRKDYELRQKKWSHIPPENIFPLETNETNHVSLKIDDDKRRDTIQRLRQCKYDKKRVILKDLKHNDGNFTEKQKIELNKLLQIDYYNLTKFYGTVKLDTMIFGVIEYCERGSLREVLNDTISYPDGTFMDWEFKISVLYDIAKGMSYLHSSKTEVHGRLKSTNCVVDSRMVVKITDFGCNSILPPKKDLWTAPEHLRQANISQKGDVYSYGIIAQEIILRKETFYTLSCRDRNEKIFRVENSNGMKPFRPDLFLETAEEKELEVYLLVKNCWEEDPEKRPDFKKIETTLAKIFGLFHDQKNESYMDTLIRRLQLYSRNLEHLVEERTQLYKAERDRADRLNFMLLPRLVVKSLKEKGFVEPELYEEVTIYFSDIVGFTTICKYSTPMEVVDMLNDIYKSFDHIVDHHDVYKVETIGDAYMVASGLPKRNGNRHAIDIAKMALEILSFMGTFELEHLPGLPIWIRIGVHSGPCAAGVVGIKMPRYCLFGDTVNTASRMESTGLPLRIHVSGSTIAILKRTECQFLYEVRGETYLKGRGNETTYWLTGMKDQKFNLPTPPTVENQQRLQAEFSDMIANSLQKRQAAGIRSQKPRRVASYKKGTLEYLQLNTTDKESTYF
T1 sequence (P25092 other isoform, or with tags, fused parts or gaps): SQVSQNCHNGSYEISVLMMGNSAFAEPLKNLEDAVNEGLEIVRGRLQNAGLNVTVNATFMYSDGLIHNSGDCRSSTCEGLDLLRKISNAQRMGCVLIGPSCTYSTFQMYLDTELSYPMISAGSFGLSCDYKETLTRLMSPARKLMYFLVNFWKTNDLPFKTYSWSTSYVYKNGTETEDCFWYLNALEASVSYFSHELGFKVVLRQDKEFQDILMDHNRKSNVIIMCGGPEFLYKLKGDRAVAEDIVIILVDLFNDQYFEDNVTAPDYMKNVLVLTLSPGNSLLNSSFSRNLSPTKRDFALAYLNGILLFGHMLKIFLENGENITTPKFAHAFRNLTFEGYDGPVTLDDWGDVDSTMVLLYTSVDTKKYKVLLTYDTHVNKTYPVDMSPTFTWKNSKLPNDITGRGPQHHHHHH
T2 sequence (P25092 24-430 limits assumed): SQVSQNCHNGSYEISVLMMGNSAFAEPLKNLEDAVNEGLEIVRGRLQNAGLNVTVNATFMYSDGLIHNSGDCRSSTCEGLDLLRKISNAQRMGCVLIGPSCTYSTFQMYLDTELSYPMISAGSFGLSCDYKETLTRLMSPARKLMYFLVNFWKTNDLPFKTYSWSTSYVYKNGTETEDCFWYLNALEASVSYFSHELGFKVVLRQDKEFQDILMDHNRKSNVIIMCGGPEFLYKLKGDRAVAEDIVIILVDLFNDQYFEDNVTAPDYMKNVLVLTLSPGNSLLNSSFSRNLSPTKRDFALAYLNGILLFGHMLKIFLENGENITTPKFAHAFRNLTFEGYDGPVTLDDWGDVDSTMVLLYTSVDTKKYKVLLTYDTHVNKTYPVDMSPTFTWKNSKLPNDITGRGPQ
T3 sequence (P07766 other isoform, or with tags, fused parts or gaps): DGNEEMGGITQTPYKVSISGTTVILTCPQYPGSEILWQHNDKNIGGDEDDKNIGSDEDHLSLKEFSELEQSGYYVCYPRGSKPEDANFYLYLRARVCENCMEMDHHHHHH

B1: SP4VHL-32H2-L (bispecific antibody, human IgG1, kappa)
heavy: not shown
light: EVQLVESGGGLVQPGGSLRLSCAASGFTFNTYAMNWVRQAPGKGLEWVARIRSKYNNYATYYADSVKDRFTISRDDSKNTLYLQMNSLRAEDTAVYYCVRHGNFGNSYVSWFAYWGQGTLVTVSSGGGGSGGGGSGGGGSGGGGSQAVVTQEPSLTVSPGGTVTLTCRSSTGAVTTSNYANWVQQKPGQAPRGLIGGTNKRAPGVPARFSGSLLGGKAALTLSGAQPEDEAEYYCALWYSNLWVFGQGTKVEIKGGGGSGGGGSGGGGSDVVMTQSPLSLPVTLGQPASISCRSSQSLVYNNGNTYLHWYQQRPGQSPRLLIYKVSNRFSGVPDRFSGSGSGTDFTLKISRVEAEDVGVYFCSQSTHVPLTFGQGTKVEIKRTVAAPSVFIFPPSDEQLKSGTASVVCLLNNFYPREAKVQWKVDNALQSGNSQESVTEQDSKDSTYSLSSTLTLSKADYEKHKVYACEVTHQGLSSPVTKSFNRGEC
notes: also called 结构18
For B1, the concentration for a half-maximal effect (EC50) in [1] was found to be 1.21 nM; in [2], 0.78 nM; in the assay with CD3ε-ECD-his [3], 1.16 nM.

B2: SP34 (humanized anti-CD3 monoclonal antibody) (antibody, human IgG1, kappa, V domains shown)
VH: EVQLVESGGGLVQPGGSLRLSCAASGFTFNTYAMNWVRQAPGKGLEWVARIRSKYNNYATYYADSVKDRFTISRDDSKNTLYLQMNSLRAEDTAVYYCVRHGNFGNSYVSWFAYWGQGTLVTVSS
VL: QAVVTQEPSLTVSPGGTVTLTCRSSTGAVTTSNYANWVQQKPGQAPRGLIGGTNKRAPGVPARFSGSLLGGKAALTLSGAQPEDEAEYYCALWYSNLWVFGQGTKVEIKR
notes: Full-length humanized IgG1/kappa made in HEK293F and purified on Protein A; also called SP34-HC/SP34-LC
B2 returned an EC50 with CD3ε-ECD-his [4] of 0.154 nM.

B3: 32H2CH1-SP4VHL-hik (bispecific antibody, human IgG1, kappa)
heavy 1: EVQLVESGGGLVKPGGSLRLSCAASGFSFRTYAMSWVRQAPGKSLEWVATISSGSSYIYYPDSVKGRFTVSRDNAKNSLYLQMNSLRAEDTAVYYCTCYRMETFEYWGQGTLVTVSSASTKGPSVFPLAPSSKSTSGGTAALGCLVKDYFPEPVTVSWNSGALTSGVHTFPAVLQSSGLYSLSSVVTVPSSSLGTQTYICNVNHKPSNTKVDKKVEPKSCGGGGSGGGGSGGGGSEVQLVESGGGLVQPGGSLRLSCAASGFTFNTYAMNWVRQAPGKGLEWVARIRSKYNNYATYYADSVKDRFTISRDDSKNTLYLQMNSLRAEDTAVYYCVRHGNFGNSYVSWFAYWGQGTLVTVSSGGGGSGGGGSGGGGSGGGGSQAVVTQEPSLTVSPGGTVTLTCRSSTGAVTTSNYANWVQQKPGQAPRGLIGGTNKRAPGVPARFSGSLLGGKAALTLSGAQPEDEAEYYCALWYSNLWVFGQGTKVEIKGGGSDKTHTCPPCPAPELLGGPSVFLFPPKPKDTLMISRTPEVTCVVVDVSHEDPEVKFNWYVDGVEVHNAKTKPREEQYNSTYRVVSVLTVLHQDWLNGKEYKCKVSNKALPAPIEKTISKAKGQPREPQVYTLPPCREEMTKNQVSLSCAVKGFYPSDIAVEWESNGQPENNYKTTPPVLDSDGSFFLVSKLTVDKSRWQQGNVFSCSVMHEALHNHYTQKSLSLSPGK
heavy 2: not shown
light: DVVMTQSPLSLPVTLGQPASISCRSSQSLVYNNGNTYLHWYQQRPGQSPRLLIYKVSNRFSGVPDRFSGSGSGTDFTLKISRVEAEDVGVYFCSQSTHVPLTFGQGTKVEIKRTVAAPSVFIFPPSDEQLKSGTASVVCLLNNFYPREAKVQWKVDNALQSGNSQESVTEQDSKDSTYSLSSTLTLSKADYEKHKVYACEVTHQGLSSPVTKSFNRGEC
notes: also called 结构8
For B3, the EC50 stood at 0.869 nM in [5], 1.92 nM with CD3ε-ECD-his [4] and 0.428 nM in assay [7]. Also, the “IC50 of T-cell-mediated killing of T84 cells” value in assay [6] was 0.002 nM. The “fold weaker affinity than SP34” value in the assay with CD3ε-ECD-his [8] was approximately 10 fold.

B4: SP4VHL-32H2-KIH (bispecific antibody)
chain 1: not shown
chain 2: EVQLVESGGGLVKPGGSLRLSCAASGFSFRTYAMSWVRQAPGKSLEWVATISSGSSYIYYPDSVKGRFTVSRDNAKNSLYLQMNSLRAEDTAVYYCTCYRMETFEYWGQGTLVTVSSASTKGPSVFPLAPSSKSTSGGTAALGCLVKDYFPEPVTVSWNSGALTSGVHTFPAVLQSSGLYSLSSVVTVPSSSLGTQTYICNVNHKPSNTKVDKKVEPKSCDKTHTCPPCPAPELLGGPSVFLFPPKPKDTLMISRTPEVTCVVVDVSHEDPEVKFNWYVDGVEVHNAKTKPREEQYNSTYRVVSVLTVLHQDWLNGKEYKCKVSNKALPAPIEKTISKAKGQPREPQVYTLPPCREEMTKNQVSLSCAVKGFYPSDIAVEWESNGQPENNYKTTPPVLDSDGSFFLVSKLTVDKSRWQQGNVFSCSVMHEALHNHYTQKSLSLSPGK
chain 3: B3 light
B4: the 50% effective concentration (EC50) was determined as 0.752 nM in assay [5], 2.37 nM in the assay with CD3ε-ECD-his [4] and 0.405 nM in assay [7]. In addition, the “fold weaker affinity than SP34” value with CD3ε-ECD-his [8] was approximately 10 fold.

B5: SP4VHL-32H2-hik (bispecific antibody)
chain 1: EVQLVESGGGLVQPGGSLRLSCAASGFTFNTYAMNWVRQAPGKGLEWVARIRSKYNNYATYYADSVKDRFTISRDDSKNTLYLQMNSLRAEDTAVYYCVRHGNFGNSYVSWFAYWGQGTLVTVSSGGGGSGGGGSGGGGSGGGGSQAVVTQEPSLTVSPGGTVTLTCRSSTGAVTTSNYANWVQQKPGQAPRGLIGGTNKRAPGVPARFSGSLLGGKAALTLSGAQPEDEAEYYCALWYSNLWVFGQGTKVEIKGGGGSGGGGSGGGGSEVQLVESGGGLVKPGGSLRLSCAASGFSFRTYAMSWVRQAPGKSLEWVATISSGSSYIYYPDSVKGRFTVSRDNAKNSLYLQMNSLRAEDTAVYYCTCYRMETFEYWGQGTLVTVSSASTKGPSVFPLAPSSKSTSGGTAALGCLVKDYFPEPVTVSWNSGALTSGVHTFPAVLQSSGLYSLSSVVTVPSSSLGTQTYICNVNHKPSNTKVDKKVEPKSCDKTHTCPPCPAPELLGGPSVFLFPPKPKDTLMISRTPEVTCVVVDVSHEDPEVKFNWYVDGVEVHNAKTKPREEQYNSTYRVVSVLTVLHQDWLNGKEYKCKVSNKALPAPIEKTISKAKGQPREPQVYTLPPCREEMTKNQVSLSCAVKGFYPSDIAVEWESNGQPENNYKTTPPVLDSDGSFFLVSKLTVDKSRWQQGNVFSCSVMHEALHNHYTQKSLSLSPGK
chain 2: not shown
chain 3: B3 light
Regarding B5, the EC50 in assay [5] worked out at 1.08 nM; in the assay with CD3ε-ECD-his [4], 4.02 nM; in [7], 0.733 nM. Further, the “fold weaker affinity than SP34” value in the assay with CD3ε-ECD-his [8] is approximately 10 fold.

B6: 32H2-SP4VHL (bispecific antibody, human IgG1, kappa)
heavy: not shown
light: B3 light
notes: also called 结构1
For the molecule B6, the EC50 in [1] was determined as 0.26 nM; in [2] it was 0.29 nM; in the assay with CD3ε-ECD-his [3], 0.3 nM.

B7: 32H2CH1-SP4VHL-KIH (bispecific antibody, human IgG1, kappa)
heavy 1: not shown
heavy 2: B4 chain 2
light: B3 light
notes: also called 结构9
For B7, the EC50 is 0.681 nM in [5], 1.31 nM in the assay with CD3ε-ECD-his [4] and 0.264 nM in assay [7]. The “IC50 of T-cell-mediated killing of T84 cells” value in [6] turned out to be 0.366 nM. In addition, in the assay with CD3ε-ECD-his [8], the “fold weaker affinity than SP34” value is approximately 10 fold.

B8: 32H2-SP4VHL-L (bispecific antibody, human IgG1, kappa)
heavy: not shown
light: DVVMTQSPLSLPVTLGQPASISCRSSQSLVYNNGNTYLHWYQQRPGQSPRLLIYKVSNRFSGVPDRFSGSGSGTDFTLKISRVEAEDVGVYFCSQSTHVPLTFGQGTKVEIKRTVAAPSVFIFPPSDEQLKSGTASVVCLLNNFYPREAKVQWKVDNALQSGNSQESVTEQDSKDSTYSLSSTLTLSKADYEKHKVYACEVTHQGLSSPVTKSFNRGECGGGGSGGGGSGGGGSEVQLVESGGGLVQPGGSLRLSCAASGFTFNTYAMNWVRQAPGKGLEWVARIRSKYNNYATYYADSVKDRFTISRDDSKNTLYLQMNSLRAEDTAVYYCVRHGNFGNSYVSWFAYWGQGTLVTVSSGGGGSGGGGSGGGGSGGGGSQAVVTQEPSLTVSPGGTVTLTCRSSTGAVTTSNYANWVQQKPGQAPRGLIGGTNKRAPGVPARFSGSLLGGKAALTLSGAQPEDEAEYYCALWYSNLWVFGQGTKVEIK
notes: also called 结构19
As to B8, the EC50 in [9] turned out to be 0.38 nM; in assay [10], 0.49 nM; in [1] it was 0.49 nM; in assay [2], 0.43 nM; with CD3ε-ECD-his [3] it was 1.09 nM. Further, the “IC50 of T-cell-mediated killing of CW2 cells (CTG, E:T 5:1, 96 h)” value in assay [11] turned out to be 0.08 nM.

For the origin of these results see patent CN116284426A (SUNSHINE GUOJIAN PHARMACEUTICAL SHANGHAI CO LTD, dated 2023).
